Data as given in US20110158985A1 (published 2011).
Values joined by “and” are separate entries in the source; they are usually repeats but may differ in a detail not shown here. Equal values may be shown once. Read-outs that look alike come from different tables or passages of the source.

Key:
[1] = biological target: T1, F protein of RSV (Long strain) (RSV (Long strain), UniProt P12568 26-574); assay: cell-based or functional assay
[2] = biological target: T1, F protein of RSV (Long strain); assay: cell-based or functional assay; remark: listed apart in the source
[3] = biological target: T1, F protein of RSV (Long strain); assay: cell-based or functional assay; remark: listed apart in the source
[4] = biological target: T2, recombinant C-terminally truncated RSV (A2 strain) F protein (RSV (A2 strain), UniProt P03420 26-524); assay: SPR (BIAcore), IgG over immobilised F
T2 construct: extracellular domain; also called truncated F protein; extracellular domain of the F protein from RSV A2
T2 sequence (P03420 137-524): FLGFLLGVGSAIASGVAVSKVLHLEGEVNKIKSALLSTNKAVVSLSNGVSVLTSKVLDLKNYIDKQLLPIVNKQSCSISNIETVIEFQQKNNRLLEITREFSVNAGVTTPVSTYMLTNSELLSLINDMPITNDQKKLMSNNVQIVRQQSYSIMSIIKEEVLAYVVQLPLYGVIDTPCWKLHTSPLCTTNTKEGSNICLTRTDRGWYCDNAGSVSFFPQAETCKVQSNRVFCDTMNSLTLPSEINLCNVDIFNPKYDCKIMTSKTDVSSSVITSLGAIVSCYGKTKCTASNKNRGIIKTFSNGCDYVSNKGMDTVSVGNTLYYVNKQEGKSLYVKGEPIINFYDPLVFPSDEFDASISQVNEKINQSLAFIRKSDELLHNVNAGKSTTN

human FcRn [5] = biological target: T3, human FcRn (human); assay: SPR (BIAcore 3000), FcRn over immobilised IgG1, pH 6.0, Scatchard
T3 construct: also called recombinant human FcRn
T3 sequence (chain, as listed by the source limits assumed, chain 1 of 2): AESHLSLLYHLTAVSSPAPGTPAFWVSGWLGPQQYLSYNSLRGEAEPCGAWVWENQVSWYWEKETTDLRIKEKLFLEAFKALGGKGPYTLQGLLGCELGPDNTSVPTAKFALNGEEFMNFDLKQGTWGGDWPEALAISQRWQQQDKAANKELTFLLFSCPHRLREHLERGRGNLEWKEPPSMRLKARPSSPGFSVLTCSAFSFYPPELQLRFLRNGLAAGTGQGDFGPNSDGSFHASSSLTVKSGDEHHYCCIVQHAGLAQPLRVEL
T3 sequence (P61769 21-119 limits assumed, chain 2 of 2): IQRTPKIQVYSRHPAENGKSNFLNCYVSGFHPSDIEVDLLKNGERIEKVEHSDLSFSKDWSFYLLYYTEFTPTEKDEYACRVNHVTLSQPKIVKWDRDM
Description: (§1) IgG1 variants was monitored by surface plasmon resonance detection using a BIAcore 3000 instrument (Pharmacia Biosensor, Uppsala, Sweden). […] The protein concentrations ranged from 3-5 μg/ml in 10 mM sodium acetate, pH 5.0. The activation period was set for 7 minutes at a flow rate of 10 μl/min and the immobilization period was set to between 10 and 20 minutes at a flow rate of 10 μl/min. […] Human and murine FcRn were buffer exchanged against 50 mM PBS buffer pH 6.0 containing 0.05% Tween 20. Dilutions were made in the same buffer. All binding experiments were performed at 25° C. with concentrations ranging from 120 to 1 μg/ml at a flow rate of 5 to 10 μl/min; data were collected for 25 to 50 minutes and three 1-minute pulses of PBS buffer pH 7.2 were used to regenerate the surfaces. FcRn was also flowed over an uncoated cell and the sensorgrams from these blank runs subtracted from those obtained with IgG1-coupled chips. Runs were analyzed using the software BIAevaluation 3.1 (Pharmacia). Association constants (KAs) were determined from Scatchard analysis by measuring the concentration of free reactants and complex at equilibrium after correction for nonspecific binding.

murine FcRn [6] = biological target: T4, murine FcRn (mouse, UniProt P01887 21-119); assay: as above
T4 construct: also called mouse FcRn; muFcRn
T4 sequence: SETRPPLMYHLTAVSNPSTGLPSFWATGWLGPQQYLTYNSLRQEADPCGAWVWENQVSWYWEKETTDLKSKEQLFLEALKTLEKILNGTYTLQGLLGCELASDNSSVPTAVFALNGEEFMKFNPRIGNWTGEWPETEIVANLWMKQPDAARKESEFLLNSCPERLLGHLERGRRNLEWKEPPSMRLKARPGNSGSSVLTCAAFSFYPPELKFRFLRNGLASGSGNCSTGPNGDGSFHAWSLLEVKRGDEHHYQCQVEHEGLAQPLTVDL
T4 sequence (b2m): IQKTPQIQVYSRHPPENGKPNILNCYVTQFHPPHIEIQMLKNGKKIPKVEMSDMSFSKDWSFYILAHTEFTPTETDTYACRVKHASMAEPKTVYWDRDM
Description: as §1

[7] = biological target: T2, recombinant C-terminally truncated RSV …; assay: SPR (BIAcore 3000), F immobilised at low density, 1:1 Langmuir fit
Description: Purified F protein was covalently coupled to an N-hydroxysuccinimide-N-ethyl-N′-[3-diethylaminopropyl]-carbodiimide (EDC/NHS) activated CM5 sensor chip at a low protein density according to the manufacturer's protocol; unreacted active ester groups were blocked with 1 M ethanolamine. For reference purposes, a blank surface, containing no antigen, was prepared under identical immobilization conditions.
For kinetic measurements, a serial 2-fold dilution series of each mAb from 100 nm-0.2 nm, made in instrument buffer (HBS/Tween-20, BIAcore, Inc.), was injected over the F-protein and reference cell surfaces, which are connected in series. In each analysis, following the dissociation phase, the remaining bound antibody was removed from the sensor chip by passing a brief pulse of 100 mM HCl over the surface. Once an entire data set was collected, the resulting binding curves were globally fitted to a 1:1 Langmuir binding model using BIAevaluation software (BIAcore, Inc., Piscataway, N.J.). This algorithm calculates both the association rate (kₒₙ) and the dissociation rate (koff), from which the apparent equilibrium binding constant, Kd, for each antibody was deduced as the ratio of the two rate constants, koff/kₒₙ.

[8] = biological target: T1, F protein of RSV (Long strain); assay: cell-based or functional assay; remark: listed apart in the source
[9] = biological target: T1, F protein of RSV (Long strain); assay: cell-based or functional assay; remark: listed apart in the source
Bac-F = Bac-F (respiratory syncytial virus); assay: SPR (BIAcore), mAb vs Bac-F (1:1)
murine FcRn [10] = biological target: T4, murine FcRn; assay: SPR (BIAcore), murine FcRn over immobilised IgG1, Scatchard
Description: Runs were analyzed using the software BIAevaluation 3.1 (Pharmacia). Association constants (KAs) were determined from Scatchard analysis by measuring the concentration of free reactants and complex at equilibrium after correction for nonspecific binding. […] The concentration of free analyte (human or murine FcRn) is equal to the bulk analyte concentration since analyte is constantly replenished during sample injection. The concentration of free ligand on the surface of the sensor chip can be derived from the concentration of the complex and from the total binding capacity of the surface as KA=Req/C(Rₘₐₓ−Req) where C is the free analyte concentration, Req is the steady-state response, and Rₘₐₓ is the total surface binding capacity. Rearranging, the equation reads: Req/C=KA Rₘₐₓ−KA Req.
To estimate apparent KAs, concentrations of FcRn ranging from 120 to 1 μg/ml were used. In all cases, equilibrium (or near-equilibrium) binding levels were reached within 50 minutes. To estimate the increase in RU resulting from the non specific effect of protein on the bulk refractive index, binding of FcRn to an uncoated cell was measured and the sensorgrams from these blank runs subtracted from those obtained with IgG1-coupled chips. The plots were all linear, and apparent KAs were calculated from the relevant slopes. […]

human FcRn [11] = biological target: T3, human FcRn; assay: SPR (BIAcore 3000), FcRn over immobilised IgG
Description: (§2) Human and Cynomolgus Monkey FcRn were buffer-exchanged against 50 mM Phosphate Buffered Saline (PBS) pH 6.0 or 7.4 containing 0.05% Tween 20. Dilutions were made in the same buffers. […] FcRn was also flowed over an uncoated cell and the sensorgrams from these blank runs subtracted from those obtained with IgG-coupled chips. Runs were analyzed using the software BIAevaluation 3.1 (Pharmacia). Dissociation constants (Kds) were determined by fitting the binding isotherms to a one-site binding model using GraphPad Prism (GraphPad Software, Inc., CA). Errors were estimated as the mean standard deviation for at least 2 independent determinations.

Cynomolgus Monkey FcRn [12] = biological target: T5, Cynomolgus Monkey FcRn (Cynomolgus Monkey, UniProt Q8SPV9 24-290; Q8SPW0 21-119); assay: SPR (BIAcore 3000), FcRn over immobilised IgG
T5 construct: also called Cynomolgus FcRn
T5 sequence (Q8SPV9 24-290 limits assumed, chain 1 of 2): as the sequence (chain, as listed by the source limits assumed, chain 1 of 2) above, with N39D, E44Q, G99S, S189G, S190N, L217M counted along it
T5 sequence (Q8SPW0 21-119 limits assumed, chain 2 of 2): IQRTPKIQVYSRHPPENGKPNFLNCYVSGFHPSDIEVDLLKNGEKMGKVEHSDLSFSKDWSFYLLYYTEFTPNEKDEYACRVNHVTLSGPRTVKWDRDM
Description: as §2

human FcRn [13] = biological target: T3, human FcRn; assay: SPR (BIAcore 3000), FcRn over immobilised IgG, pH 6.0, one-site fit
Description: as §2

Cynomolgus Monkey FcRn [14] = biological target: T5, Cynomolgus Monkey FcRn; assay: as above
Description: as §2

human FcRn [15] = biological target: T3, human FcRn; assay: SPR (BIAcore), FcRn over immobilised IgG1, pH 6.0
Description: as §1

murine FcRn [16] = biological target: T4, murine FcRn; assay: SPR (BIAcore), FcRn over immobilised IgG1, pH 6.0
Description: as §1

B1: palivizumab (IgG) (antibody)
heavy: not shown
light: DIQMTQSPSTLSASVGDRVTITCKCQLSVGYMHWYQQKPGKAPKLLIYDTSKLASGVPSRFSGSGSGTEFTLTISSLQPDDFATYYCFQGSGYPFTFGGGTKLEIKRTVAAPSVFIFPPSDEQLKSGTASVVCLLNNFYPREAKVQWKVDNALQSGNSQESVTEQDSKDSTYSLSSTLTLSKADYEKHKVYACEVTHQGLSSPVTKSFNRGEC
notes: also called SYNAGIS
Microneutralization IC50, IgG [1]: 0.453 µg/ml and 3.02 nM
IC50 [2]: 3.57 nM
Mean IC50 (Control) [3]: 0.535 µg/mL
Mean IC50 (Curve) [3]: 0.453 µg/mL
Kd [4]: 3.39 nM
Kd (human FcRn [5]): 2530 nM
Kd (murine FcRn [6]): 269 nM
Kd [7]: 3.46 nM
Microneutralization IC50, IgG [8]: 0.453 µg/ml and 3.02 nM
Microneutralization IC50 [9]: 3.6 nM
RSV microneutralization, average IC50 [9]: 0.315 µg/mL
Kd (Bac-F): 3.9 nM

B2: human IgG1 MEDI-493 (palivizumab) M252Y/S254T/T256E (antibody)
heavy: QVTLRESGPALVKPTQTLTLTCTFSGFSLSTSGMSVGWIRQPPGKALEWLADIWWDDKKDYNPSLKSRLTISKDTSKNQVVLKVTNMDPADTATYYCARSMITNWYFDVWGAGTTVTVSSASTKGPSVFPLAPSSKSTSGGTAALGCLVKDYFPEPVTVSWNSGALTSGVHTFPAVLQSSGLYSLSSVVTVPSSSLGTQTYICNVNHKPSNTKVDKRVEPKSCDKTHTCPPCPAPELLGGPSVFLFPPKPKDTLYITREPEVTCVVVDVSHEDPEVKFNWYVDGVEVHNAKTKPREEQYNSTYRVVSVLTVLHQDWLNGKEYKCKVSNKALPAPIEKTISKAKGQPREPQVYTLPPSREEMTKNQVSLTCLVKGFYPSDIAVEWESNGQPENNYKTTPPVLDSDGSFFLYSKLTVDKSRWQQGNVFSCSVMHEALHNHYTQKSLSLSPGK
light: DIQMTQSPSTLSASVGDRVTITCKCQLSVGYMHWYQQKPGKAPKLLIYDTSKLASGVPSRFSGSGSGTEFTLTISSLQPDDFATYYCFQGSGYPFTFGGGTKLEIKRTVAAPSVFIFPPSDEQLKSGTASVVCLLNNFYPREAKVQWKVDNALQSGNSQESVTEQDSKDSTYSLSSTLTLSKADYEKHKVYACEVTHQGLSSPVTKSFNRGEC
notes: also called IgG1/M252Y/S254T/T256E
Kd (murine FcRn [6]): 27 nM
ΔΔG (murine FcRn [6]): 1.4 kcal/mol
Kd (murine FcRn [10]): 24 nM

B3: MEDI-524-YTE (antibody, human IgG1, kappa)
heavy: QVTLRESGPALVKPTQTLTLTCTFSGFSLSTAGMSVGWIRQPPGKALEWLADIWWDDKKHYNPSLKDRLTISKDTSKNQVVLKVTNMDPADTATYYCARDMIFNFYFDVWGQGTTVTVSSASTKGPSVFPLAPSSKSTSGGTAALGCLVKDYFPEPVTVSWNSGALTSGVHTFPAVLQSSGLYSLSSVVTVPSSSLGTQTYICNVNHKPSNTKVDKRVEPKSCDKTHTCPPCPAPELLGGPSVFLFPPKPKDTLYITREPEVTCVVVDVSHEDPEVKFNWYVDGVEVHNAKTKPREEQYNSTYRVVSVLTVLHQDWLNGKEYKCKVSNKALPAPIEKTISKAKGQPREPQVYTLPPSREEMTKNQVSLTCLVKGFYPSDIAVEWESNGQPENNYKTTPPVLDSDGSFFLYSKLTVDKSRWQQGNVFSCSVMHEALHNHYTQKSLSLSPGK
light: DIQMTQSPSTLSASVGDRVTITCSASSRVGYMHWYQQKPGKAPKLLIYDTSKLASGVPSRFSGSGSGTEFTLTISSLQPDDFATYYCFQGSGYPFTFGGGTKVEIKRTVAAPSVFIFPPSDEQLKSGTASVVCLLNNFYPREAKVQWKVDNALQSGNSQESVTEQDSKDSTYSLSSTLTLSKADYEKHKVYACEVTHQGLSSPVTKSFNRGEC
fold affinity increase over MEDI-524 (human FcRn [11]): 11 fold
fold affinity increase over MEDI-524 (Cynomolgus Monkey FcRn [12]): 9 fold
Kd (human FcRn [13]): 210 nM
Kd (Cynomolgus Monkey FcRn [14]): 134 nM

B4: human IgG1 MEDI-493 (palivizumab) I253A (antibody)
heavy: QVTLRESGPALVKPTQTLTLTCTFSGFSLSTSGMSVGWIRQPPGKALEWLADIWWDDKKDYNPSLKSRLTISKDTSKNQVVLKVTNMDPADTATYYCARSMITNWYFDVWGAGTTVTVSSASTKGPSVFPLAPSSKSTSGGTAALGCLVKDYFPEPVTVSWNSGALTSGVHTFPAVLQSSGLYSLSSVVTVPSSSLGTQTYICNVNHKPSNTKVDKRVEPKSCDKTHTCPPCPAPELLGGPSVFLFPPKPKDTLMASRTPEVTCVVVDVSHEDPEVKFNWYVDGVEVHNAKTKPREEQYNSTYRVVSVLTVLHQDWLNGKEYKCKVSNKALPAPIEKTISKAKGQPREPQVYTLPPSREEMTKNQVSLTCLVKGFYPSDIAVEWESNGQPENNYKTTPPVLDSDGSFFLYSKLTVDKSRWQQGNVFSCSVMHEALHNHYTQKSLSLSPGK
light: DIQMTQSPSTLSASVGDRVTITCKCQLSVGYMHWYQQKPGKAPKLLIYDTSKLASGVPSRFSGSGSGTEFTLTISSLQPDDFATYYCFQGSGYPFTFGGGTKLEIKRTVAAPSVFIFPPSDEQLKSGTASVVCLLNNFYPREAKVQWKVDNALQSGNSQESVTEQDSKDSTYSLSSTLTLSKADYEKHKVYACEVTHQGLSSPVTKSFNRGEC
notes: also called 1253A
binding result (human FcRn [15]): no binding
binding result (murine FcRn [16]): no binding
